According to patent US20200190192A1:

Target: cynomolgus PD-1 expressed on CHO cells (cynomolgus monkey)
Test: cPD-1 binding titration (format not named; taken as cell binding)

Binder | Bmax | Kd
1353-G10 H1 HC IgG (antibody, V domains shown) VH: EVQLVQSGAEVKKPGASVKVSCKASGYTFDSYGISWVRQAPGQGLEWMGWISAYNGNTNYAQKLQGRVTMTTDTSTNTAYMELRSLRSDDTAVYYCARDVDYGTGSGYWGQGTLVTVSS VL: SYELTQPPSVSVSPGQTARITCSGDALPKQYAYWYQQKPGQAPVMVIYKDTERPSGIPERFSGSSSGTKVTLTISGVQAEDEADYYCQSADNSITYRVFGGGTKVTVL | 2960 | 0.3 nM
1353-G10 H1/vk1-39 IgG (antibody, V domains shown) VH: EVQLVQSGAEVKKPGASVKVSCKASGYTFDSYGISWVRQAPGQGLEWMGWISAYNGNTNYAQKLQGRVTMTTDTSTNTAYMELRSLRSDDTAVYYCARDVDYGTGSGYWGQGTLVTVSS VL: DIQLTQSPSSLSASVGDRVTITCSGDALPKQYAYWYQQKPGKAPKLLIYKDTERPSGVPSRFSGSSSGTKVTLTISSLQPEDFATYYCQSADNSITYRVFGGGTKVEIK | 2800 | 2.3 nM
